Assay [1] addresses Pichia pastoris recombinant Oo-ASP-1 (Ostertagia ostertagi). Description: reducing and non-reducing SDS-PAGE + LC-MS of tryptic peptides; denaturing SDS-PAGE with and without β-mercaptoethanol; 1D and 2D LC-MS of reduced (DTT/IAA) and non-reduced tryptic digests to map intra- and intermolecular disulphide bridges; disulphide-linked dimer.
Assay [2] concerns the target native Oo-ASP-1 (activation-associated secreted protein 1 of Ostertagia ostertagi) (Ostertagia ostertagi). Described as above.

As for “Pichia pastoris recombinant Oo-ASP-1 (natural protein)”, in assay [1], the stoichiometry N worked out at 2.
Take “native Oo-ASP-1 (activation-associated secreted protein 1 of Ostertagia ostertagi) (natural protein)”: the stoichiometry N in assay [2] turned out to be 2.

As usually defined, the stoichiometry N is a count of units in the complex or per binding partner.
